Self-cleavage data for 167 variants are collected here from the RNAGym collection of RNA variant scans (doi:10.7554/elife.80360).

B1: Hairpin Ribozyme (parent)
chain: GUCCUCUUUCACGUGCGCGUGAAAGAGAGAAGUGAACCAGAGAAACACACGUUGUGGUAUAUUACCUGGUA

In this series the parent is B1. Briefly: self-cleavage, relative activity (ratio to wild type); higher = more cleavage; co-transcriptional.
On to G21C G56A, for which the self-cleavage came to 0.184.

Take U20G U63A: the self-cleavage was 0.171. With U20G U63G the figure was 0.265; with U20G U63C, 0.255. Take A22C A26G: the self-cleavage stood at 0.557. For G21U C37G, the self-cleavage is 0.32.

As for G21U U55G, the self-cleavage worked out at 0.2. U20G C66U: the self-cleavage turned out to be 0.411. In the case of A22G G40U, the self-cleavage was determined as 0.181.

G21C A71U: the self-cleavage was found to be 0.794. With G21U G56U the figure was 0.147.

Take G21U G56A: the self-cleavage was determined as 0.178. For the variant G21A A24G, the self-cleavage was 0.576. As to G21A A24C, the self-cleavage was determined as 0.563.

Take A22U A36U: the self-cleavage worked out at 0.58. Regarding G21U U33A, the self-cleavage stood at 0.242. With G21U U33G the figure was 0.127; with A22G G51U, 0.957. For A22G G51A, the self-cleavage stood at 1.05. With G21C G27U, the self-cleavage was 0.2. Turning to A22C U63A, the self-cleavage is 0.288. For G21C G57C, the self-cleavage stood at 0.143. With A22G A71G the figure was 0.907; with A22G A71U, 0.702; with G21C U55C, 0.204. With G21C U55A the figure was 0.165.

In the case of G21C U55G, the self-cleavage was found to be 0.248.

Turning to G21U C66A, the self-cleavage worked out at 0.236.

As for G21U C66G, the self-cleavage is 0.123. With G21U A28G the figure was 0.98; with G21U A28C, 0.366.

With A22C G69C, the self-cleavage was determined as 0.366.

In the case of A22G G69A, the self-cleavage was determined as 0.385. With A22G G69U the figure was 0.238; with G21A G29A, 0.166. As for G21C A24U, the self-cleavage was found to be 0.585. Turning to G21U G57C, the self-cleavage was 0.176.

In the case of G21U G34C, the self-cleavage is 1.08.

As for G21U C46G, the self-cleavage came to 0.0824.

Take G21C U52G: the self-cleavage turned out to be 0.654. Regarding G21A G56C, the self-cleavage came to 0.2.

As to A22G G32A, the self-cleavage stood at 0.0872. Consider A22G G32U, for which the self-cleavage came to 0.0605. With A22G U53G the figure was 0.936. Consider A22U G40C, for which the self-cleavage was found to be 0.122. With A22G U58A the figure was 0.657; with G21U G54U, 0.329; with G21U G54C, 0.438. Consider G21U G54A, for which the self-cleavage was found to be 0.582. For A22C C37G, the self-cleavage amounted to 0.368.

As for A22C C37U, the self-cleavage is 0.435.

A22C C37A: the self-cleavage came out at 0.25. As to U20G G56A, the self-cleavage came to 0.0796. For the variant U20G G56U, the self-cleavage came out at 0.191. As for A22C A43G, the self-cleavage worked out at 0.249. Take A22C U58G: the self-cleavage was 0.575. In the case of G21U G29U, the self-cleavage is 0.106. For the variant G21U G29A, the self-cleavage amounted to 0.142. As for A22G A35C, the self-cleavage worked out at 0.715.

With A22U C66A, the self-cleavage stood at 0.209. Regarding A22U C66G, the self-cleavage turned out to be 0.175. Take A22G A64C: the self-cleavage turned out to be 0.22. For U20G G27A, the self-cleavage worked out at 0.31. With G21C G69U the figure was 0.155; with G21A A30G, 0.238.

As for G21A A30U, the self-cleavage is 0.144.

For A22U A44U, the self-cleavage was determined as 0.173. Take G21C C65G: the self-cleavage came out at 0.249. On to G21C C65U, for which the self-cleavage was 0.304.

On to A22U A35G, for which the self-cleavage is 0.84.

On to A22U A35C, for which the self-cleavage was determined as 0.762.

For the variant A22U A35U, the self-cleavage stood at 0.611. Consider A22G A59G, for which the self-cleavage was 0.212.

As to G21U G27A, the self-cleavage came to 0.25. With A22C A35U the figure was 0.746; with A22C A35C, 0.895; with A22C A35G, 0.679. As to U20G G68A, the self-cleavage was found to be 0.14. As to G21U A71C, the self-cleavage came to 1.2. With G21U A71U the figure was 0.754. Regarding G21U A26G, the self-cleavage came out at 0.708. For G21U A26U, the self-cleavage came out at 0.561. With G21C G29A the figure was 0.0976; with G21C G29C, 0.119. For the variant A22C G51C, the self-cleavage was found to be 0.769.

With A22C G51A, the self-cleavage came out at 0.93. With G21C G25C the figure was 0.238; with G21C A23G, 0.77.

For U20G G57C, the self-cleavage was found to be 0.123.

With A22G G56C, the self-cleavage came out at 0.137. Turning to G21A G68U, the self-cleavage came out at 0.165. With A22C U62C the figure was 0.196; with G21A G40C, 0.169; with G21A G40A, 0.312. Consider U20G G25A, for which the self-cleavage came out at 0.469. Take U20G U53G: the self-cleavage worked out at 0.702. Take G21C G34A: the self-cleavage turned out to be 1.02.

Consider A22U G51A, for which the self-cleavage was determined as 0.811. With G21A U55G the figure was 0.271; with G21A U55C, 0.242; with A22U A23C, 0.733.

With A22U A23G, the self-cleavage was 0.72. Regarding A22G G34U, the self-cleavage is 1.22. With A22G G34A the figure was 0.987; with A22G G34C, 1.52; with A22U A39C, 0.456.

For the variant A22U A39G, the self-cleavage amounted to 0.277.

For the variant A22U A41C, the self-cleavage is 0.87. For A22U A59U, the self-cleavage was 0.143.

For A22G A61G, the self-cleavage is 0.285.

With U20G U33C, the self-cleavage came to 0.109. With A22C U52A the figure was 0.821; with A22U G34U, 1.21. With A22U G34C the figure was 0.996; with A22U G42U, 0.369. With G21C A28C, the self-cleavage is 0.412. For the variant G21C A28G, the self-cleavage was 0.852.

As for G21C C48A, the self-cleavage was determined as 0.0883. With G21U G42C the figure was 0.36; with G21A A31C, 0.133; with G21A A31G, 0.424. With A22G G54C the figure was 0.35.

For the variant G21C G51U, the self-cleavage was 0.865. As for G21C G51C, the self-cleavage is 0.803. As for G21A G51U, the self-cleavage was determined as 0.99. Consider G21A G51C, for which the self-cleavage came out at 0.771.

Take G21A G51A: the self-cleavage was 1.04. As for A22C A24C, the self-cleavage came to 0.233. With G21U A41G the figure was 0.772; with A22C A31U, 0.108; with A22C A31G, 0.642. With A22C A31C the figure was 0.16; with A22G A39U, 0.42. With A22G A39C the figure was 0.475. In the case of A22G A49G, the self-cleavage worked out at 0.345. For A22G A49C, the self-cleavage came to 0.164.

As to A22C A71C, the self-cleavage turned out to be 1.26.

On to G21C A61U, for which the self-cleavage is 0.304. Regarding G21C A61G, the self-cleavage was determined as 0.104.

Consider A22C G56A, for which the self-cleavage was found to be 0.165. With A22U G57A, the self-cleavage is 0.121.

A22U G57C: the self-cleavage worked out at 0.175. With G21C U33C the figure was 0.145; with G21C U33G, 0.238; with G21U A45C, 0.218. As for G21U A45U, the self-cleavage turned out to be 0.218.

G21U A45G: the self-cleavage amounted to 0.26. With G21U A49U the figure was 0.189; with A22G U52G, 0.692. As for A22G U52C, the self-cleavage turned out to be 0.791. With G21A C48G the figure was 0.192. With A22C G40A the figure was 0.242; with G21U A35G, 0.757. With G21C G54C the figure was 0.305; with A22U G32U, 0.0918; with A22U G32C, 0.123. For the variant A22U A45C, the self-cleavage was determined as 0.179.

Consider A22U A45G, for which the self-cleavage amounted to 0.225.

In the case of A22U G27U, the self-cleavage worked out at 0.187. With A22U G27C the figure was 0.178; with A22U G27A, 0.283. Take G21A U70G: the self-cleavage came out at 0.821. G21A U70C: the self-cleavage came to 0.758.

As to A22G G27U, the self-cleavage was 0.262. Regarding A22G G27C, the self-cleavage came to 0.161.

Take G21A A41G: the self-cleavage worked out at 0.765. With G21A A41C, the self-cleavage was determined as 0.761.
